Reference: paper PMC8545111, “Molecular Basis of the Versatile Regulatory Mechanism of HtrA-Type Protease AlgW from Pseudomonas aeruginosa” (mBio, 2021)

Columns and labels:
AlgW-E266A = target: T1, AlgW-E266A (Pseudomonas aeruginosa, UniProt Q9HVX1 30-389, E266A); experiment: cell-based or functional assay
T1 sequence: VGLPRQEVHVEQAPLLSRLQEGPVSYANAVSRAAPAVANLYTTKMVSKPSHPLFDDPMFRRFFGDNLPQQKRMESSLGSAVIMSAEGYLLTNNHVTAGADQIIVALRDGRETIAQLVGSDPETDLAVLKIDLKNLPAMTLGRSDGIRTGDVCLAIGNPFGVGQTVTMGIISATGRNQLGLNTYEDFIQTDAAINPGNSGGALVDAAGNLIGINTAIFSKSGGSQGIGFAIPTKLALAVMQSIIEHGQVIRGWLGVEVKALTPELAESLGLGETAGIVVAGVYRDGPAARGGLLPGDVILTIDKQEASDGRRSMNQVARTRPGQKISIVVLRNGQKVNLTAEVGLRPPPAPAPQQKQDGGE

AlgW-V284A = target: T2, AlgW-V284A (Pseudomonas aeruginosa, UniProt Q9HVX1 30-389, V284A); experiment: cell-based or functional assay
T2 sequence: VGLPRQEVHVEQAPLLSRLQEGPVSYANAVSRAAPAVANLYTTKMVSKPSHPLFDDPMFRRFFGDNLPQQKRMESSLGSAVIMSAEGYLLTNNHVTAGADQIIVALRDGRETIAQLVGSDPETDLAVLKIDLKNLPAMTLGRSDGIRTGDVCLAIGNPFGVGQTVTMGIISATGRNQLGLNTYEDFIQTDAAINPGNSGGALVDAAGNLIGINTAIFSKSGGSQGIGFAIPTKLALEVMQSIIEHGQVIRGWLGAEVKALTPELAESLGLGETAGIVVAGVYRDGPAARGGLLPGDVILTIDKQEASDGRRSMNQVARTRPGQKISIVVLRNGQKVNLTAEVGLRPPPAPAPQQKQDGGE

AlgW-E285A = target: T3, AlgW-E285A (Pseudomonas aeruginosa, UniProt Q9HVX1 30-389, E285A); experiment: cell-based or functional assay
T3 sequence: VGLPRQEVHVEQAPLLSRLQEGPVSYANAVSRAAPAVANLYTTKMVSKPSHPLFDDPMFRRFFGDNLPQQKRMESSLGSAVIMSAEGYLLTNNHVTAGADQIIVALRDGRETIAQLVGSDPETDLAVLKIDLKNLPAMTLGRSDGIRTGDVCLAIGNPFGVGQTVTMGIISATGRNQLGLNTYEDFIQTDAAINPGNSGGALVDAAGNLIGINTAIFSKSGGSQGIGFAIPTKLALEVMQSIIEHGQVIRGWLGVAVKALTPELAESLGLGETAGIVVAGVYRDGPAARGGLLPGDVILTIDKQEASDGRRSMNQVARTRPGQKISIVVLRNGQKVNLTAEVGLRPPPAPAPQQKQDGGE

AlgW-R374A = target: T4, AlgW-R374A (Pseudomonas aeruginosa, UniProt Q9HVX1 30-389, R374A); experiment: cell-based or functional assay
T4 sequence: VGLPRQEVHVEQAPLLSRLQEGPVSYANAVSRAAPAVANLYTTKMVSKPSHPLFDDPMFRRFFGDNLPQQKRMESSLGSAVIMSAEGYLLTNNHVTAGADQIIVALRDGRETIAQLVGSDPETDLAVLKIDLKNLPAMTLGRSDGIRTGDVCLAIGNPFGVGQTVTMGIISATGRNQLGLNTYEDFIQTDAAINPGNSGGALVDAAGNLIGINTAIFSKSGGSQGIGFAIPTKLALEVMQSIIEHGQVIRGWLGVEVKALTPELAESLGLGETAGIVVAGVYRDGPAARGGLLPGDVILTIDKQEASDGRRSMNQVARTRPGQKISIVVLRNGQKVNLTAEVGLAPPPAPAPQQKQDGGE

AlgW-Y212A = target: T5, AlgW-Y212A (Pseudomonas aeruginosa, UniProt Q9HVX1 30-389, Y212A); experiment: cell-based or functional assay
T5 sequence: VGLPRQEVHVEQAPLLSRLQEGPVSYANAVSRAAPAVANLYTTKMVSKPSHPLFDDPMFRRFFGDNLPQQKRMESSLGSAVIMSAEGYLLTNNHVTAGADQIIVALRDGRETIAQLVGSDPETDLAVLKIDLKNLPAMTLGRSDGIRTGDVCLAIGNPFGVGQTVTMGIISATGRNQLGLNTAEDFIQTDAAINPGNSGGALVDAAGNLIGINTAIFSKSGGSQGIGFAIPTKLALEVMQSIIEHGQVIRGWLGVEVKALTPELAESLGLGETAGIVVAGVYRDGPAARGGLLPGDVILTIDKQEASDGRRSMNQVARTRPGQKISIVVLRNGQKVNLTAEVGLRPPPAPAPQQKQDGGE

AlgW-L282A = target: T6, AlgW-L282A (Pseudomonas aeruginosa, UniProt Q9HVX1 30-389, L282A); experiment: cell-based or functional assay
T6 sequence: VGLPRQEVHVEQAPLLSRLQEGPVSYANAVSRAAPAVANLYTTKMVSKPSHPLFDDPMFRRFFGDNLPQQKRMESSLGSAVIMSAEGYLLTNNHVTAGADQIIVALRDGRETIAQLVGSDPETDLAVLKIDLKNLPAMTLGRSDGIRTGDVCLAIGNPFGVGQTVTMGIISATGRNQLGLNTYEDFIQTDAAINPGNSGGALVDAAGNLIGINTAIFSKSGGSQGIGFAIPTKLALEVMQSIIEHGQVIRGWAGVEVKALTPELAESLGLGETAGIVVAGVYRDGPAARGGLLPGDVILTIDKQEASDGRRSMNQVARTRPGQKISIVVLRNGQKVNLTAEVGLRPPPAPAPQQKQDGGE

[1] = target: T7, AlgWS227A (inactive mutant of the periplasmic soluble domain of AlgW, for crystallization) (Pseudomonas aeruginosa, UniProt Q9HVX1 52-389, S227A); experiment: crystal structure; protein mixed with peptide activator (tripeptide WVF or decapeptide …) prior to crystallization; hanging-drop vapor diffusion at 18°C; molecular replacement; conditions: both partners purified
T7 construct: AlgW of Pseudomonas aeruginosa, residues 52-389 (construct for crystallization), catalytic serine S227 changed to alanine; source: E. coli BL21(DE3), purified (Ni-NTA, Superdex-75 SEC)
T7 sequence: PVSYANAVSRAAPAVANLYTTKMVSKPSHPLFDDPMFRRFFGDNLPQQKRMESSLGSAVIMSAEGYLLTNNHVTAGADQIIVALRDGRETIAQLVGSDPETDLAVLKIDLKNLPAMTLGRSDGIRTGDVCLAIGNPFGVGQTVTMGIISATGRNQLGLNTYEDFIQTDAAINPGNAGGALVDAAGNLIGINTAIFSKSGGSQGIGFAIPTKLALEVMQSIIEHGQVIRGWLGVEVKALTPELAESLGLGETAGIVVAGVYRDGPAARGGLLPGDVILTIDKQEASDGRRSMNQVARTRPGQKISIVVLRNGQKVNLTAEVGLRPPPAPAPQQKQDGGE

B1: decapeptide SVRDELRWVF (MucE C-terminal tail) (peptide)
peptide: SVRDELRWVF
notes: C-terminal decapeptide of the periplasmic protein MucE of Pseudomonas aeruginosa; also called C-terminal decapeptide of MucE
half-maximal activation concentration of the peptide activator (cleavage of Abz-VLAG-pNA) (AlgW-E266A): 1.08 μM
half-maximal activation concentration of the peptide activator (cleavage of Abz-VLAG-pNA) (AlgW-V284A): 3.56 μM
maximal cleavage activity of peptide-activated AlgW (Abz-VLAG-pNA) (AlgW-V284A): 63.1 μM min^−1
half-maximal activation concentration of the peptide activator (cleavage of Abz-VLAG-pNA) (AlgW-E285A): 3.84 μM
maximal cleavage activity of peptide-activated AlgW (Abz-VLAG-pNA) (AlgW-E285A): 57.5 μM min^−1
maximal cleavage activity of peptide-activated AlgW (Abz-VLAG-pNA) (AlgW-R374A): 5.45 μM min^−1
half-maximal activation concentration of the peptide activator (cleavage of Abz-VLAG-pNA) (AlgW-Y212A): 2.12 μM
half-maximal activation concentration of the peptide activator (cleavage of Abz-VLAG-pNA) (AlgW-L282A): 2.76 μM
maximal cleavage activity of peptide-activated AlgW (Abz-VLAG-pNA) (AlgW-L282A): 13.2 μM min^−1
binding result [1]: binds
